From the supplement of paper PMC10567573

B1: TRIM14 (parent)
chain: YARTPTLDPDTMHARLRLSADRLT

Variants of: B1
Experiment: protein stability index of a GFP-peptide fusion (GPS, HEK-293T) (PSI 1-6); higher = more stable
Details: c terminus: a fixed tail appended
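Also: lentivirally expressed fusions sorted by FACS into six bins by GFP to DsRed ratio, PSI derived from sequencing read proportions per bin multiplied by bin number.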

Compared with YARTPTLDPDTMHARLRLSADRDT [L23D], YARTPTLPPDTMHARLRLSADRLT [D8P] is lower in protein stability index: 3.38 for the first, 2.41 for the second.

First: YARTPTLIPDTMHARLRLSADRLT [D8I]
Second: YARTPTLTPDTMHARLRLSADRLT [D8T]
The protein stability index of the first is lower: 2.24 for the first, 2.45 for the second.

Compared with YARTPTLNPDTMHARLRLSADRLT [D8N], YARTPTLDPDTMHGRLRLSADRLT [A14G] is higher in protein stability index: 2.58 for the first, 3.26 for the second.

Going from YARTPTLDPDTMHWRLRLSADRLT [A14W] to YARTPTLDPDTMHPRLRLSADRLT [A14P], the protein stability index falls from 2.7 to 2.45.

First: YARTPTLDPDTMHARLRLSAERLT [D21E]
Second: YARTPTLDPDTMHARLRLSAARLT [D21A]
The protein stability index of the first is higher: 2.53 for the first, 2.43 for the second.

First: YARTPTLDPDTMHARLRLSAYRLT [D21Y]
Second: YARTPTLDPDTMHARLRLSATRLT [D21T]
The protein stability index of the first is lower: 1.6 for the first, 2.61 for the second.

Compared with YARTPTLDPDTMHARDRLSADRLT [L16D], YARTPTLDPDTMHARCRLSADRLT [L16C] is lower in protein stability index: 2.77 for the first, 1.93 for the second.

First: YARTPTLDPDTMHARHRLSADRLT [L16H]
Second: YARTPTLDPDTMHARSRLSADRLT [L16S]
The protein stability index of the first is lower: 3.27 for the first, 3.52 for the second.

Compared with YARTPTLDPDTMHARIRLSADRLT [L16I], YARTPTLDPDTMHARLRHSADRLT [L18H] is higher in protein stability index: 2.56 for the first, 2.82 for the second.

Compared with YARTPTLDPDTMHARLRSSADRLT [L18S], YARTPTLDPDTMHARLRQSADRLT [L18Q] is lower in protein stability index: 2.87 for the first, 2.65 for the second.

First: YARTPTLDPDTMHARLRESADRLT [L18E]
Second: YARTPTLDPDTMHARLRTSADRLT [L18T]
The protein stability index of the first is higher: 3.06 for the first, 2.42 for the second.

Compared with YARTPTLDPDTMHARLRKSADRLT [L18K], YARTPTLDPDTMHARLRPSADRLT [L18P] is higher in protein stability index: 2.51 for the first, 3.34 for the second.

Going from AARTPTLDPDTMHARLRLSADRLT [Y1A] to DARTPTLDPDTMHARLRLSADRLT [Y1D], the protein stability index rises from 3.59 to 3.61.

Compared with GARTPTLDPDTMHARLRLSADRLT [Y1G], TARTPTLDPDTMHARLRLSADRLT [Y1T] is lower in protein stability index: 4 for the first, 3.69 for the second.

Compared with LARTPTLDPDTMHARLRLSADRLT [Y1L], PARTPTLDPDTMHARLRLSADRLT [Y1P] is higher in protein stability index: 3.62 for the first, 3.77 for the second.

Going from RARTPTLDPDTMHARLRLSADRLT [Y1R] to CARTPTLDPDTMHARLRLSADRLT [Y1C], the protein stability index falls from 3.64 to 3.2.

First: YARTPTLDPDTMHARLMLSADRLT [R17M]
Second: YARTPTLDPDTMHARLALSADRLT [R17A]
The protein stability index of the first is lower: 2.42 for the first, 2.89 for the second.

YARTPTLDPDTMHARLGLSADRLT [R17G] and YARTPTLDPDTMHARLSLSADRLT [R17S] are the same in protein stability index: 3.01 for the first, 3.01 for the second.

Compared with YARTPTLDPDTMHARLQLSADRLT [R17Q], YARTPTLDPDTMHARLRLNADRLT [S19N] is higher in protein stability index: 2.56 for the first, 3.01 for the second.

Compared with YARTPTLDPDTMHARLRLKADRLT [S19K], YARTPTLDPDTMHARLRLRADRLT [S19R] is higher in protein stability index: 2.29 for the first, 2.88 for the second.

Compared with YARTPTLDPDTMHARLRLMADRLT [S19M], YARTPTLDPDTMQARLRLSADRLT [H13Q] is higher in protein stability index: 2.06 for the first, 2.84 for the second.

Compared with YARKPTLDPDTMHARLRLSADRLT [T4K], YARHPTLDPDTMHARLRLSADRLT [T4H] is higher in protein stability index: 2.61 for the first, 2.67 for the second.

First: YARQPTLDPDTMHARLRLSADRLT [T4Q]
Second: YARIPTLDPDTMHARLRLSADRLT [T4I]
The protein stability index of the first is lower: 2.84 for the first, 3.04 for the second.

First: YARFPTLDPDTMHARLRLSADRLT [T4F]
Second: YARPPTLDPDTMHARLRLSADRLT [T4P]
The protein stability index of the first is lower: 2.21 for the first, 2.95 for the second.

Going from YARTPTLDPDTEHARLRLSADRLT [M12E] to YARTPTLDPDTNHARLRLSADRLT [M12N], the protein stability index rises from 3.6 to 3.63.

First: YARTPTLDPDTRHARLRLSADRLT [M12R]
Second: YARTPTLDPDNMHARLRLSADRLT [T11N]
The protein stability index of the first is higher: 3.07 for the first, 2.45 for the second.

Going from YARTPTLDPDKMHARLRLSADRLT [T11K] to YALTPTLDPDTMHARLRLSADRLT [R3L], the protein stability index rises from 3.29 to 3.34.

Going from YAYTPTLDPDTMHARLRLSADRLT [R3Y] to YAVTPTLDPDTMHARLRLSADRLT [R3V], the protein stability index rises from 1.83 to 3.

First: YARTPTLDPDTMHARLRLSADNLT [R22N]
Second: YARTPTLDPDTMHARLRLSADRLA [T24A]
The protein stability index of the first is lower: 2.77 for the first, 2.82 for the second.

Going from YARTPTLDPDTMHARLRLSADRLV [T24V] to YARTPTLDPDTMHARLRLSADRLI [T24I], the protein stability index rises from 2.21 to 2.84.

First: YARTPTLDPDTMHARLRLSADRLN [T24N]
Second: YARTPTLDPDTMHARLRLSADRLG [T24G]
The protein stability index of the first is lower: 2.92 for the first, 3.09 for the second.

Compared with YARTPTLDPDTMHARLRLSADRLH [T24H], YARTPTSDPDTMHARLRLSADRLT [L7S] is higher in protein stability index: 2.39 for the first, 2.98 for the second.

Compared with YARTPTADPDTMHARLRLSADRLT [L7A], YARTPTEDPDTMHARLRLSADRLT [L7E] is higher in protein stability index: 2.75 for the first, 3.65 for the second.

Compared with YARTPTCDPDTMHARLRLSADRLT [L7C], YARTPRLDPDTMHARLRLSADRLT [T6R] is lower in protein stability index: 2.1 for the first, 1.94 for the second.

Going from YARTPPLDPDTMHARLRLSADRLT [T6P] to YARTPALDPDTMHARLRLSADRLT [T6A], the protein stability index rises from 2.3 to 2.64.

Compared with YERTPTLDPDTMHARLRLSADRLT [A2E], YMRTPTLDPDTMHARLRLSADRLT [A2M] is lower in protein stability index: 3.71 for the first, 2.69 for the second.

Going from YARTPTLDPDTMHARLRLSQDRLT [A20Q] to YARTPTLDPDTMHARLRLSLDRLT [A20L], the protein stability index rises from 1.84 to 2.04.

Going from YARTPTLDPDTMHARLRLSFDRLT [A20F] to YARTPTLDPDTMHARLRLSRDRLT [A20R], the protein stability index falls from 1.61 to 1.49.

Compared with YARTPTLDPDTMHARLRLSEDRLT [A20E], YARTPTLDPDTMHARLRLSWDRLT [A20W] is higher in protein stability index: 3.03 for the first, 3.31 for the second.

Going from YARTPTLDPDTMHAGLRLSADRLT [R15G] to YARTPTLDPDTMHADLRLSADRLT [R15D], the protein stability index falls from 3.36 to 2.8.

Compared with YARTPTLDPDTMHAWLRLSADRLT [R15W], YARTPTLDPDTMHACLRLSADRLT [R15C] is lower in protein stability index: 1.95 for the first, 1.85 for the second.

Going from YARTPTLDPDTMHAQLRLSADRLT [R15Q] to YARTNTLDPDTMHARLRLSADRLT [P5N], the protein stability index falls from 2.43 to 2.

Compared with YARTYTLDPDTMHARLRLSADRLT [P5Y], YARTWTLDPDTMHARLRLSADRLT [P5W] is higher in protein stability index: 2.11 for the first, 2.37 for the second.

Compared with YARTFTLDPDTMHARLRLSADRLT [P5F], YARTDTLDPDTMHARLRLSADRLT [P5D] is higher in protein stability index: 2.06 for the first, 3.57 for the second.

Going from YARTPTLDNDTMHARLRLSADRLT [P9N] to YARTPTLDFDTMHARLRLSADRLT [P9F], the protein stability index falls from 3.11 to 2.21.

Going from YARTPTLDCDTMHARLRLSADRLT [P9C] to YARTPTLDPFTMHARLRLSADRLT [D10F], the protein stability index falls from 2.1 to 1.64.

First: YARTPTLDPGTMHARLRLSADRLT [D10G]
Second: YARTPTLDPITMHARLRLSADRLT [D10I]
The protein stability index of the first is higher: 2.48 for the first, 2 for the second.
